Reference: patent publication US8304206
Where “and” joins values, the source holds several entries; their conditions need not be identical. Identical values can stand only once.

Target: T1, SIRT1 Acetylated Peptide Substrate Ac-EE-K(biotin)-GQSTSSHSK(Ac)NleSTEG-K(5TMR)-EE-NH2 (SEQ ID NO: 34)
T1 chain: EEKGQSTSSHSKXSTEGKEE

B1: SIRT1 protein (human SIRT1 enzyme), expressed in E. coli BL21(DE3) as an N-terminal His-tag fusion protein (protein)
chain: MADEAALALQPGGSPSAAGADREAASSPAGEPLRKRPRRDGPGLERSPGEPGGAAPEREVPAAARGCPGAAAAALWREAEAEAAAAGGEQEAQATAAAGEGDNGPGLQGPSREPPLADNLYDEDDDDEGEEEEEAAAAAIGYRDNLLFGDEIITNGFHSCESDEEDRASHASSSDWTPRPRIGPYTFVQQHLMIGTDPRTILKDLLPETIPPPELDDMTLWQIVINILSEPPKRKKRKDINTIEDAVKLLQECKKIIVLTGAGVSVSCGIPDFRSRDGIYARLAVDFPDLPDPQAMFDIEYFRKDPRPFFKFAKEIYPGQFQPSLCHKFIALSDKEGKLLRNYTQNIDTLEQVAGIQRIIQCHGSFATASCLICKYKVDCEAVRGDIFNQVVPRCPRCPADEPLAIMKPEIVFFGENLPEQFHRAMKYDKDEVDLLIVIGSSLKVRPVALIPSSIPHEVPQILINREPLPHLHFDVELLGDCDVIINELCHRLGGEYAKLCCNPVKLSEITEKPPRTQKELAYLSELPPTPLHVSEDSSSPERTSPPDSSVIVTLLDQAAKSNDDLDVSESKGCMEEKPQEVQTSRNVESIAEQMENPDLKNVGSSTGEKNERTSVAGTVRKCWPNRVAKEQISRRLDGNQYLFLPPNRYIFHGAEVYSDSEDDVLSSSSCGSNSDSGTCQSPSLEEPMEDESEIEEFYNGLEDEPDVPERAGGAGFGTDGDDQEAINEAISVKQEVTDMNYPSNKS
  Km (mass spectrometry deacetylase assay, replicate plate): 11.2 µM and 11.9 µM
  Peptide Km (mean of 2 replicate plates, mass spectrometry assay): 11.6 µM
  deacetylation of the peptide (conversion to deacetylated product, mass spectrometry): SIRT1 deacetylation activity is dependent on both enzyme concentration and incubation time. Concentrations of enzyme between 5-20 nM result in product formation well above background.
  decrease of Km for peptide substrate at 1.2 µM resveratrol (against DMSO vehicle): 2%
  decrease of Km for peptide substrate at 3.7 µM resveratrol (against DMSO vehicle): 14%
  decrease of Km for peptide substrate at 11 µM resveratrol (against DMSO vehicle): 14%
  decrease of Km for peptide substrate at 33 µM resveratrol (against DMSO vehicle): 32%
  decrease of Km for peptide substrate at 100 µM resveratrol (against DMSO vehicle): 46%
